Measurements as given in patent US20260116991A1 (HAINAN SIMCERE ZAIMING PHARMACEUTICAL, published 2026).
Substitutions are numbered along the chain they refer to.

T1: polypeptide GC3pep (human)
T1 construct: also called membrane proximal polypeptide GC3pep
T1 peptide: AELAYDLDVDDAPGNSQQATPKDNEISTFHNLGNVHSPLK

B1: F1.118.4 (antibody, human IgG1, kappa, V domains shown)
VH: QVQLQQSGAELAKPGASVKLSCKASGYSFTSYWIHWVKQRPGQGLEWIGYINPSSGYTKYNQKFKDKATLTADKSSSTAYMQLSSLTYEDSAVYYCARFGSSSFYFDYWGQGTTLTVSS
VL: DIVLTQSPASLAVSLGQRATISCRASQSVSSSSYSYMHWYQQKPGQPPKLLIKYASNLDSGVPARFSGSGSGTDFTLNIHPVEEEDTATYYCQHSWEIPAFGGGTKLEIKR
notes: human-murine chimeric antibody
B2: F1.136.7 (antibody, human IgG1, kappa, V domains shown)
VH: EVQLQQSGPVMVKPGPSVKISCQTSGFTFTDYYIHWVKQSHGKSLEWIGLVFPYDGGTNYNQKFKDKATLTLDTSSSTAYMELNSLTSEDSAVYYCARAGGFSYALNYWGQGTSVTVSS
VL: DIQMTQSPSSLSASLGGKVTITCKASQDINNYIAWYQHKPGKGPRLLIHFTSTLQPGIPSRFSGSGSGRDYSFSISNLEPEDIATYYCLQYDNLLLTFGAGTKLELKR
notes: as for B1
B3: F1.115.8 (antibody, human IgG1, kappa, V domains shown)
VH: EVQLQQSGPELVKPGASVKMSCKASGYTFTEYYMHWVKQSHGKSLEWIGYIYPNNGGNGYNQKFKGKATLTVDKSSSTAYMGLRSLTSEDSAVYYCVRGYYSNWYFDVWGTGTTVTVSS
VL: DVLMTQTPLSLPVSLGDQASISCRSSQSIVHSNGKTYLEWYLQKPGQSPKLLIYKVSNRFSGVPDRFSGSGSGTDFTLKISRVEAEDLGVYYCFQGSHVPFTFGSGTKLEIKR
notes: as for B1
B4: F2.23.8 (antibody, human IgG1, kappa, V domains shown)
VH: QVQLQQSGAELVRPGASVKLSCKASGYTFTDYEMHWVKQTPVHGLEWFGAIDPETGGTAYNQKFRAKATLTADKSSSTAYMELRSLTSEDSAVYYCTRFYSFAYWGQGTLVTVSA
VL: B3 VL with L3V, I29L, K35N, E39Q, S81T, Y92F, F94S, G96S, S97T, F101Y
notes: as for B1
B5: F2.152.3 (antibody, human IgG1, kappa, V domains shown)
VH: EVQLQQSGPELVKPGASVKMSCKASGYTFTDYYMTWVKQSHGKSLEWIGRVNPRNGDTTYNQKFEGRATLTLDKSLSTAFMQLNSLTSEDSAVYYCINSKGHFDYWGQGTTLTVSS
VL: B3 VL with K35N, Y41F, L51S, F101P, S105A, I111L
notes: as for B1
B6: F1.9.19 (antibody, human IgG1, kappa, V domains shown)
VH: DVQLQESGPGLVKPSQSLSLTCSVTGYSITSGYYWNWIRQFPGNRLEWMAYISYDGINNYNPSLKNRISIARDTSTNQFFLKLNSVTSEDTATYYCATTTEVALFDHWGQGTTLTVSS
VL: B3 VL with M4L, S28N, S32G, K35N, Y41F, V90L, G96A, F101W, S105G
notes: as for B1
B7: F2.154.1 (antibody, human IgG1, kappa, V domains shown)
VH: B4 VH with T28R, F48I, A50T, G57N, N61T, R65M, A66D, F99G, A103T, V111A
VL: B3 VL with S28N, K35N, E39Q, Y54F, S105T
notes: as for B1
B8: F3.38.7 (antibody, human IgG1, kappa, V domains shown)
VH: QVQLQQSGAELVRPGASVKLSCKASGYTFTDYEIHWVKQTPVLGLEWIGAIDPKTGNTAYNQKFMGKATLTADKSSTTAYMDLRSLTSEDSAVYYCTRYFSFAYWGQGTLVTVSA
VL: B3 VL with S28T, I29F, K35N, E39Q, F101Y
notes: as for B1
B9: F2.169.2 (antibody, human IgG1, kappa, V domains shown)
VH: EVQLVETGGGLVQPKGSLKLSCAASGFSFNTNAMNWVRQAPGKGLEWVARIRSKSNNYATYYADSVKDRFTISRDDSQSMLYLQMNNLKTEDTAMYYCVRDGYYVLFAYWGQGTLVTVSA
VL: B3 VL with S25F, H31N, K35N, Y41F, S105T
notes: as for B1
B10: F1.153.1 (antibody, human IgG1, kappa, V domains shown)
VH: QIQLVQSGPELKKPGETVKISCKASGYTFTTAGMQWVQKMPGKGFKWIGWINTHSGEPQYAEDFKGRFAFSLETSASTAYLQISNLKNEDTATYFCARSFYYHGSSFFYFDYWGQGTTLTVSS
VL: DIVMTQSQKFMSTTVGDRVSITCKASQNVGTAVAWYQQKPGQSPKLLIYSASNRYTGVPDRFTGSGSGADFTLTISNMQSEDLADYFCQQYSRYPLTFGAGTKLELKR
notes: as for B1
B11: F1.120.16 (antibody, human IgG1, kappa, V domains shown)
VH: EFQLQQSGPELVKPGASVKISCKASGYSFTDYNMNWVKQSNGKSLEWIGLIHPKFSVTSYNRKFKGKATLTVDQSSSTAYMQLNSLTSEDSAVYYCARWAGDYFDYWGQGTTLTVSS
VL: DIVLTQSPATLSVTPGDSVSLSCRASQSISNNLHWYQQKSHESPRLLIKYASQSISGIPSRFSGSGSGTDFTLTINSVETEDFGMYFCQQSNSWPQTFGGGTKLEIKR
notes: as for B1
B12: F1.62.9 (antibody, human IgG1, kappa, V domains shown)
VH: QVQLQQSDAELVKPGASVKISCKVSGYIFTDHTIHWMKQRPEQGLEWIGYIYPRDGSIKYNENFKGKATLTADKSSSATYMQLNSLTSEDSAVYFCARPIYYDYAYYFDYWGQGTTLTVSS
VL: DVVMTQSPLSLPVSLGDQASISCRSRQSLVHSNGNTYLHWYLQKPGQSPKVLIYKVSNRFSGVPDRFSGSGSGTDFTLKISRVEAEDLGVYFCSQSTHVPYTFGGGTKLEIKR
notes: as for B1
B13: F2.92.1 (antibody, human IgG1, kappa, V domains shown)
VH: B4 VH with T28I, T30S, M34I, W47C, F48I, I51V, R65K, A66G, Y95F, A115T
VL: B12 VL with S7T, A19G, R26S, H39Q, V51L, S94C, P100L, Y101P
notes: as for B1
B14: F2.39.2 (antibody, human IgG1, kappa, V domains shown)
VH: B4 VH with L20V, V37M, F48I, I51N, D52E, G57R, T58S, N61D, R65K, A66G
VL: B12 VL with S7T, R26S, S28G, S32N, V51L, S96N, Y101P
notes: as for B1
B15: F1.3.9 (antibody, human IgG1, kappa, V domains shown)
VH: QVQLQQPGTELVKPGASVKLSCKASGYTFTSYWIHWVKQRPGQGLEWIGNINPPNAGTNYNEKFKSKATLTVDKSSSTAYMQLSSLTSEDSAVYYCARGRWLLHDYWGQGTTLTVSS
VL: DIQMTQSPASLSISVGETVTITCRASENIYSNLAWYQQKQGKSPQLLVYGTKNLAEGVPSRFSGSGSGTQYSLKINSLQSEDFGNYYCQHFWGTPYTFGGGTKLEILR
notes: as for B1
B16: F2.55.11 (antibody, human IgG1, kappa, V domains shown)
VH: EVKLVESGGGLVKPGGSLKLSCAASGLTFSTCTMSWVRQTPAKRLEWVATISSGGGNTYYPDSVKGRFTISRDNARNTLYLQMSSLRSEDTAMYYCVRLYYDGSPYAMDYWGQGTSVTVSS
VL: DIQMTQTTSSLSASLGDRVTISCRASQDISNHLNWYQQKPDGTVKLLIYYTSRLHSGVPSRFSGSGSGTDYSLTISNLEQEDIATYFCQQDSKPPPTFGSGTKLEIKR
notes: as for B1

Molecular target: T1, polypeptide GC3pep
Test: ELISA, GC3pep coated, antibody 0.001 nM

Row | Binder | OD450 nm [OD450 nm]
1 | B1 | 0.04
2 | B2 | 0.04
3 | B3 | 0.05
4 | B4 | 0.1
5 | B5 | 0.09
6 | B6 | 0.07
7 | B7 | 0.06
8 | B8 | 0.06
9 | B9 | 0.06
10 | B10 | 0.05
11 | B11 | 0.04
12 | B12 | 0.05
13 | B13 | 0.07
14 | B14 | 0.09
15 | B15 | 0.05
16 | B16 | 0.07

Molecular target: T1, polypeptide GC3pep
Test: ELISA, GC3pep coated, antibody 10 nM;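 further: antibody bound to the coated peptide for 2 h at 37 °C, detected through an HRP-conjugated secondary antibody with TMB colour development stopped by acid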
Method: (§1) The plate was sealed with a plastic film and incubated at 4° C. overnight, washed twice with PBS the next day, and a blocking solution [PBS+2% (w/w) BSA] was added for blocking at room temperature for 2 h. […] After incubation at 37° C. for 2 h, the plate was washed 3 times with PBS. A horseradish peroxidase (HRP)-labeled secondary antibody (purchased from Merck, Cat. No. AP113P) was added for incubation at 37° C. for 1 h, and the plate was washed 5 times with PBS. A TMB substrate was added at 50 μL/well for incubation at room temperature for 10 min, then a stop solution (1.0M HCl) was added at 50 μL/well.

Row | Binder | OD450 nm [OD450 nm]
17 | B1 | 0.05
18 | B2 | 0.04
19 | B3 | 0.05
20 | B4 | 2.42
21 | B5 | 2.43
22 | B6 | 0.06
23 | B7 | 2.42
24 | B8 | 2.83
25 | B9 | 2.38
26 | B10 | 0.05
27 | B11 | 0.06
28 | B12 | 0.07
29 | B13 | 2.28
30 | B14 | 2.38
31 | B15 | 0.06
32 | B16 | 2.51

Molecular target: T1, polypeptide GC3pep
Test: ELISA, GC3pep coated, antibody 0.01 nM;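 further: bound antibody detected with an HRP-conjugated secondary antibody and TMB substrate, color reaction stopped with HCl before reading absorbance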
Method: as §1

Row | Binder | OD450 nm [OD450 nm]
33 | B1 | 0.04
34 | B2 | 0.04
35 | B3 | 0.04
36 | B4 | 0.3
37 | B5 | 0.35
38 | B6 | 0.05
39 | B7 | 0.2
40 | B8 | 0.19
41 | B9 | 0.24
42 | B10 | 0.04
43 | B11 | 0.04
44 | B12 | 0.05
45 | B13 | 0.15
46 | B14 | 0.32
47 | B15 | 0.05
48 | B16 | 0.26

Molecular target: T1, polypeptide GC3pep
Test: ELISA, GC3pep coated, antibody 0.1 nM;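 further: antibody allowed to bind the coated plate 2 h at 37 °C, then detected via HRP-conjugated secondary antibody and TMB development for 10 min, stopped with HCl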
Method: as §1

Row | Binder | OD450 nm [OD450 nm]
49 | B1 | 0.04
50 | B2 | 0.04
51 | B3 | 0.05
52 | B4 | 1.38
53 | B5 | 1.53
54 | B6 | 0.04
55 | B7 | 1.13
56 | B8 | 1.01
57 | B9 | 1.25
58 | B10 | 0.05
59 | B11 | 0.04
60 | B12 | 0.05
61 | B13 | 0.85
62 | B14 | 1.35
63 | B15 | 0.05
64 | B16 | 1.34

Molecular target: T1, polypeptide GC3pep
Test: ELISA, GC3pep coated, antibody 1 nM;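 further: bound antibody detected with an HRP-conjugated secondary antibody and TMB substrate, reaction stopped with HCl, after 2 h binding at 37 °C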
Method: as §1

Row | Binder | OD450 nm [OD450 nm]
65 | B1 | 0.04
66 | B2 | 0.04
67 | B3 | 0.08
68 | B4 | 2.12
69 | B5 | 2.18
70 | B6 | 0.06
71 | B7 | 2.29
72 | B8 | 2.57
73 | B9 | 2.36
74 | B10 | 0.04
75 | B11 | 0.04
76 | B12 | 0.05
77 | B13 | 1.92
78 | B14 | 2.21
79 | B15 | 0.05
80 | B16 | 2.41

Molecular target: T1, polypeptide GC3pep
Test: ELISA, GC3pep coated, antibody 0.0001 nM

Row | Binder | OD450 nm [OD450 nm]
81 | B1 | 0.05
82 | B2 | 0.05
83 | B3 | 0.05
84 | B4 | 0.07
85 | B5 | 0.05
86 | B6 | 0.05
87 | B7 | 0.05
88 | B8 | 0.05
89 | B9 | 0.05
90 | B10 | 0.06
91 | B11 | 0.05
92 | B12 | 0.05
93 | B13 | 0.05
94 | B14 | 0.05
95 | B15 | 0.07
96 | B16 | 0.05

Molecular target: T1, polypeptide GC3pep
Test: ELISA, GC3pep coated, antibody 100 nM;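 further: detection with an HRP-conjugated secondary antibody and TMB substrate, color reaction stopped with HCl before absorbance reading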
Method: as §1

Row | Binder | OD450 nm [OD450 nm]
97 | B1 | 0.06
98 | B2 | 0.08
99 | B3 | 0.1
100 | B4 | 2.51
101 | B5 | 2.63
102 | B6 | 0.08
103 | B7 | 2.73
104 | B8 | 3.22
105 | B9 | 2.73
106 | B10 | 0.11
107 | B11 | 0.08
108 | B12 | 0.13
109 | B13 | 2.41
110 | B14 | 2.58
111 | B15 | 0.13
112 | B16 | 2.85
